The numbers were not newly measured in patent US20120064039A1, “Use of Guanylyl Cyclase C Agonists to Suppress Appetite” (priority 2009, published 2012), which cites them from elsewhere.

This data set has as its target ST receptors (guanylate cyclase) (Homo sapiens, UniProt P25092). The settings on record: relative to native ST; about.

Chain of ST receptors (guanylate cyclase) (P25092 24-1073): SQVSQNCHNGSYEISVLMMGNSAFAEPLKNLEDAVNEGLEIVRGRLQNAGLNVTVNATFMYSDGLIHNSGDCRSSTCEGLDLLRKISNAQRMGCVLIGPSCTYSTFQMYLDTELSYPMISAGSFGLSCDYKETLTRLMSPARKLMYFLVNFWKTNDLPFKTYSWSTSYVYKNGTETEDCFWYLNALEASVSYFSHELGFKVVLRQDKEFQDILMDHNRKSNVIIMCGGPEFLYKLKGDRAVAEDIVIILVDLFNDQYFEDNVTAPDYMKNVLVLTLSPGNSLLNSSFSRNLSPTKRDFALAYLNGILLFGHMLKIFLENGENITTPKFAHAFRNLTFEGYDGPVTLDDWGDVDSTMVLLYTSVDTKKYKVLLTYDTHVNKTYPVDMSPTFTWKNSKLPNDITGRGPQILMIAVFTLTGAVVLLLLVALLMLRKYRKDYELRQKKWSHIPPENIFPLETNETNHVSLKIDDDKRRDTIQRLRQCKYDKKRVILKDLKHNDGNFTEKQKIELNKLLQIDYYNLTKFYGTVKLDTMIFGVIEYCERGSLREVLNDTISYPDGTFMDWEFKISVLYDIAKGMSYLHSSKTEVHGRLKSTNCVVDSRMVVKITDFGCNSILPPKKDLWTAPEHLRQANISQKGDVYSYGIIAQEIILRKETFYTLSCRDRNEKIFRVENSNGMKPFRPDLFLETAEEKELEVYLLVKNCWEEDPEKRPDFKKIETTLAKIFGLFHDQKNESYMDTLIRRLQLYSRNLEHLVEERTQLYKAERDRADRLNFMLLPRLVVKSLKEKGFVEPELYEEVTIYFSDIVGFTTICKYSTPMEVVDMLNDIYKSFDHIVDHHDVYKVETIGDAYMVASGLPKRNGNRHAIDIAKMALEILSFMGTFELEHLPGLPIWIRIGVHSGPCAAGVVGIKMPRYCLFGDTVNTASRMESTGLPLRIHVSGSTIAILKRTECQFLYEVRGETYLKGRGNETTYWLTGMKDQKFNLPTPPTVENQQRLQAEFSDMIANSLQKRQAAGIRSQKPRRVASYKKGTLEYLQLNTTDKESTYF

Take “guanylin (PNTCEICAYAACTGC; listed as Rattus norvegicus) [native GCC ligand]”: the “activates guanylate cyclase at a level less than native ST” value is on record as 10- to 100 fold.
